Molecular target: polyclonal human IgG
Test: affinity chromatography; VHH on Sepharose resin at about 15 mg/ml ligand density

DBC (dynamic binding capacity) (mg human IgG/ml resin)	Binder
28	anti IgG-CH1 VHH #01 (VHH) VHH: QVQLQESGGGLVQAGGSLRLSCAVSGNTLSRYAMGWFRQTPGNEREFVAAIRWNNGATYYADSVEGRFTISRDSGKNTVYLQMNNLQPEDTAVYYCAGRFLGYASSNAYHEALYNYDYWGQGTQVTVSS

Molecular target: polyclonal human IgG
Test: affinity chromatography; VHH coupled to NHS-Sepharose 4B FF, polyclonal human IgG 0.5 mg/ml in PBS pH 7.4, 150 cm/hr

Binder	DBC (dynamic binding capacity)
anti IgG-CH1 VHH #01 (VHH) VHH: QVQLQESGGGLVQAGGSLRLSCAVSGNTLSRYAMGWFRQTPGNEREFVAAIRWNNGATYYADSVEGRFTISRDSGKNTVYLQMNNLQPEDTAVYYCAGRFLGYASSNAYHEALYNYDYWGQGTQVTVSS	8.74 mg/mL
anti IgG-CH1 VHH #10 (VHH) VHH: QVQLQESGGGLVQAGGSLRLSCAVSGNTLSRYAMGWFRQTPGKEREFVAAIRWNNGATYYADSVEGRFTISRDSGKNTVYLQMNNLQPEDTAVYYCAGRFLGYASSNAYHEALYNYDYWGQGTQVTVSS	12 mg/mL
anti IgG-CH1 VHH #19 (VHH) VHH: QVQLQESGGGLVQAGGSLRLSCAVSGNTLSRYAMGWFRQTPGNEREFVAAIRWNNGATYYADSVKGRFTISRDSGKNTVYLQMNNLQPEDTAVYYCAGRFLGYASSNAYHEALYNYDYWGQGTQVTVSS	9.4 mg/mL
anti IgG-CH1 VHH #55 (VHH) VHH: QVQLQESGGGLVQAGGSLRLSCAVSGNTLSRYAMGWFRQTPGNEREFVAAIRWNNGATYYADSVKGRFTISRDSGKNTVYLQMNNLKPEDTAVYYCAGRFLGYASSNAYHEALYNYDYWGQGTQVTVSS	11.3 mg/mL
anti IgG-CH1 VHH #28 (VHH) VHH: QVQLQESGGGLVQAGGSLRLSCAVSGNTLSRYAMGWFRQTPGNEREFVAAIRWNNGATYYADSVEGRFTISRDSGKNTVYLQMNNLKPEDTAVYYCAGRFLGYASSNAYHEALYNYDYWGQGTQVTVSS	12.5 mg/mL
anti IgG-CH1 VHH #46 (VHH) VHH: QVQLQESGGGLVQAGGSLRLSCAVSGNTLSRYAMGWFRQTPGKEREFVAAIRWNNGATYYADSVEGRFTISRDSGKNTVYLQMNNLKPEDTAVYYCAGRFLGYASSNAYHEALYNYDYWGQGTQVTVSS	11.2 mg/mL
anti IgG-CH1 VHH #37 (VHH) VHH: QVQLQESGGGLVQAGGSLRLSCAVSGNTLSRYAMGWFRQTPGKEREFVAAIRWNNGATYYADSVKGRFTISRDSGKNTVYLQMNNLQPEDTAVYYCAGRFLGYASSNAYHEALYNYDYWGQGTQVTVSS	9.8 mg/mL

More lines, now with the values ahead:

DBC (dynamic binding capacity)	Binder
10.2 mg/mL	anti IgG-CH1 VHH #64 (VHH) VHH: QVQLQESGGGLVQAGGSLRLSCAVSGNTLSRYAMGWFRQTPGKEREFVAAIRWNNGATYYADSVKGRFTISRDSGKNTVYLQMNNLKPEDTAVYYCAGRFLGYASSNAYHEALYNYDYWGQGTQVTVSS
8.27 mg/mL	anti IgG-CH1 VHH #84 (VHH) VHH: QVQLQDSGGGLVQAGGSLRLSCAVSGNTLSRYAMGWFRQAPGNEREFVAAIRWNNGNTYYADSVKGRFTISRDSAKNTVYLQMNSLQPEDTAVYYCAARFLPYASSNAYHEALYNYDYWGQGTQVTVSS
11.9 mg/mL	anti IgG-CH1 VHH #85 (VHH) VHH: QVQLQESGGGLVQAGGSLRLSCAVSGNTLSRYAMGWFRQAPGNEREFVAAIRWNNGATYYADSVEGRFTISRDSGKNTVYLQMNSLQPEDTAVYYCAGRFLGYASSNAYHEALYNYDYWGQGTQVTVSS
6.69 mg/mL	anti IgG-CH1 VHH #82 (VHH) VHH: QVQLQESGGGLVQAGGSLRLSCAVSGNTLSRYAMGWFRQAPGNEREFVAAIRWNNGNTYYADSVKGRFTISRDSAKNTVFLQMNSLQPEDTAVYFCAARFLPYASSNAYHEALYNYDYWGQGTQVTVSS
5.61 mg/mL	anti IgG-CH1 VHH #89 (VHH) VHH: QVQLQESGGGLVQAGGSLRLSCAVSGNTLSRYAMGWFRQAPGNEREFVAAIRWNNGNTYYADSVKGRFTISRDSAKNTVYLQMNSLQPEDTAVYYCASRFLPYASSNAYHEALYNYDYWGQGTQVTVSS
11.7 mg/mL	anti IgG-CH1 VHH #73 (VHH) VHH: QVQLQESGGGLVQAGGSLRLSCAVSGNTLSRYAMGWFRQTPGNEREFVAAIRWNNGATYYADSVKGRFTISRDSGRNTVYLQMNNLKPEDTAVYYCAGRFLGYASSNAYHEALYNYDYWGQGTQVTVSS
8.46 mg/mL	anti IgG-CH1 VHH #83 (VHH) VHH: QVQLQDSGGGLVQAGGSLRLSCAVSGNTLSRYAMGWFRQAPGNEREFVAAIRWNNGNTYYADSVEGRFTISRDSAKNTVYLQMNSLQPEDTAVYYCAARFLPYASSNAYHEALYNYDYWGQGTQVTVSS
4.98 mg/mL	anti IgG-CH1 VHH #86 (VHH) VHH: QVQLQDSGGGSVQAGGSLRLSCAVSGNTLSRYAMGWFRQAPGNEREFVAAIRWNNGNTYYADSVKGRFTISRDSAKNTVYLQMNSLQPEDTAVYFCAARFLPYASSNAYHEALYNYDYWGQGTQVTVSS
5.64 mg/mL	anti IgG-CH1 VHH #87 (VHH) VHH: QVQLQESGGGLVQAGASLRLSCEVSGNTLSQYAMGWFRQVPGHKREFVAAIRWTNGNTYYADSVEGRFTISRDSAKKTVYLQMNSLQPDDTAIYYCAARFLPYASSNAYHESLYNYDYWGQGTQVTVSS
7.31 mg/mL	anti IgG-CH1 VHH #88 (VHH) VHH: QVQLQESGGGSVQAGGSLRLSCAVSGNTLSRYAMGWFRQAPGNEREFVAAIRWNNGNTYYADSVEGRFTISRYSAKNLVYLQMNSLQAEDTAIYYCAARFLPYASSNAYHEALYNYDYWGQGTQVTVSS

From patent publication US20130337478A1
